Assay results reported in PMC3258154.

Target: eIF3 from HeLa cells (human (endogenous in HeLa)) (UniProt Q14152)
Test: native gel or EMSA

concentration below which the complex starts to dissociate: 200 to 300 nM
Substance: eIF2 from HeLa cells (from UniProt P05198 1-315; P20042 1-333) (complex)
